Data as given in patent US20240092930A1 (MABWELL SHANGHAI BIOSCIENCE, published 2024).
One block for each binder: values may come before it.

Assays:
[1] = target: T1, recombinant mouse Trop-2-his protein (Cat.: 50922-M08H, Beijing Yiqiao Shenzhou Science and Technology Co., … (mouse, UniProt Q8BGV3 25-270)); test: ELISA, plate coated with recombinant mouse Trop-2-his, HRP-goat anti-mouse IgG (Fc gamma), OD450/630
T1 construct: Bought protein; not shown: his tag
T1 sequence (looked up): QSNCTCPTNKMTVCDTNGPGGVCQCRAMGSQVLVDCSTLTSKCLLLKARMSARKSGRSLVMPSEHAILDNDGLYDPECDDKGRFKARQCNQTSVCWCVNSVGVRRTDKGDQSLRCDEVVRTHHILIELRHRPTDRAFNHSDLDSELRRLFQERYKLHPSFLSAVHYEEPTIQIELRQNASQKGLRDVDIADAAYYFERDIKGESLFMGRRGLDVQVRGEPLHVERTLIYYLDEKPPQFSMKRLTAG
Method: (§1) Washed with PBS 3 times, the plates were blocked with the added 5% BSA PBS at 37° C. for 60 min, and then washed 3 times with PBST. The 15 purified murine antibodies were diluted to 1 μg/ml with PBS. Controls as follows were set: (1) Positive Control (PC): Sacituzumab (WHO Drug Information (Vol. 31, No. 1, 2017), SEQ ID NO: 39 and SEQ ID NO: 40), a version having murine IgG constant region, […]; (2) Negative Control (NC): an antibody from an irrelevant hybridoma, 1 μg/ml; (3) blank control: PBS. After incubation at 37° C. for 60 min, the plates were washed 4 times with PBST. […] Afterwards, the plates were washed with PBST 4 times, and TMB substrate was added for color development at 37° C. for 10 min. Then 2M HCl was added to stop reaction; and absorbances at 450 nm and at 630 nm (as reference wavelength) were read, and A450 nm-630 nm values of the wells in the plates were recorded.

[2] = target: T1, recombinant mouse Trop-2-his protein …; test: ELISA, coated mouse Trop-2-his, purified murine antibody 1 µg/ml
Method: as §1

[3] = target: T1, recombinant mouse Trop-2-his protein …; test: ELISA, coated mouse Trop-2-his, purified murine antibody
Method: as §1

[4] = target: T2, recombinant human Trop-2-his protein (ACCESSION NO.: NP_002344.2, AA 1-274) (human, UniProt P09758 27-274); test: BLI, antibody on AHC sensor, Trop-2-his 60 nM
T2 construct: range 27-274; also called recombinant human Trop-2 protein; recombinant human Trop-2 extracellular domain; not shown: his tag
T2 sequence (looked up): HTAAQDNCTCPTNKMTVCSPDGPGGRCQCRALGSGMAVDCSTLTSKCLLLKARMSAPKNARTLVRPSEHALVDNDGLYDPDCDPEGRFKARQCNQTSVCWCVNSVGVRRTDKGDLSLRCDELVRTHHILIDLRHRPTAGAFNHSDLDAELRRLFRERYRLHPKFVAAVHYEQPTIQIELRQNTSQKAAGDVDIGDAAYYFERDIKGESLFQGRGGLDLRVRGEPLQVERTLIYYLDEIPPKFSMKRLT
Method: 5-6 days after cell transfection, culture supernatants were purified through ProA affinity chromatography column to obtain different humanized antibodies. Affinities of the obtained antibodies were determined by an assay including capturing Fc fragments of the antibodies with anti-human IgG Fc capture (AHC) biosensors using Octet QKe system instrument from Fortebio. For the assay, each of the humanized antibodies and control antibody Sacituzumab was diluted to 4 μg/ml in PBS, and was allowed to flow through the surface of an AHC biosensor (Cat.: 18-0015, PALL) for 120 s. Recombinant human Trop-2-his protein (ACCESSION NO.: NP_002344.2, AA 1-274) was used as a mobile phase, and its concentration was 60 nM. The binding time was 100 s and the dissociation time was 300 s. When the assay was finished, data from which the response values of blank control had been deducted were fitted to a 1:1 Langmuir binding model using software, and then kinetic constants for antigen-antibody binding were calculated.
Affinities of the antibodies obtained from the combinations of mutants of murine antibody 23-12, chimeric antibody ch4-3 and control antibody Sacituzumab to recombinant human Trop-2-his protein were determined by ForteBio (Table 8).

[5] = target: T3, recombinant cynomolgus Trop-2-his protein (ACCESSION NO.: UniProtKB-A0A2K5UE71, AA 1-272) (cynomolgus, UniProt A0A2K5UE71 1-272); test: ELISA, coated cynomolgus Trop-2-his 1 µg/ml
T3 construct: The printed range begins at residue 1; not shown: his tag
T3 sequence: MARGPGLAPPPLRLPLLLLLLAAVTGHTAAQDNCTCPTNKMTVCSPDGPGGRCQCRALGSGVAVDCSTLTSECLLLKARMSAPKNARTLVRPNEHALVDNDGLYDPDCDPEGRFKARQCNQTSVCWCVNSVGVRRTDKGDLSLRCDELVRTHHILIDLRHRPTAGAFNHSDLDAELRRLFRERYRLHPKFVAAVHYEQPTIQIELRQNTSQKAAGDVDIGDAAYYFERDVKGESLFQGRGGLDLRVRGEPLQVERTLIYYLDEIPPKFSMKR
Method: (§2) Washed with PBS 3 times, the plates were blocked with the added 5% BSA PBS at 37° C. for 60 min, and then washed 3 times with PBST. Different concentrations of h23-12 (serial dilutions of 14 concentrations obtained through 3-fold serially diluting a solution with an initial concentration of 10 μg/ml), h4-3 (serial dilutions of 12 concentrations obtained through 3-fold serially diluting a solution with an initial concentration of 3 μg/ml), and Sacituzumab (serial dilutions of 12 concentrations obtained through 3-fold serially diluting a solution with an initial concentration of 3 μg/ml) were added into the plates, with each concentration provided in a parallel well. The plates were incubated at 37° C. for 60 min, and then were washed 4 times with PBST. 1:5000 dilution of H1RP-anti-human Fc (Cat.: 109-035-098, Jackson ImmunoResearch) was added into the plates for incubation at 37° C. for 30 min. Afterwards, the plates were washed with PBST 4 times, and TMB substrate was added for color development at 37° C. for 10 min. Then 2M HCl was added to stop reaction; and absorbances at 450 nm and at 630 nm (as reference wavelength) were read, and A450 nm-630 nm values of the wells in the plates were recorded.

[6] = target: T2, recombinant human Trop-2-his protein …; test: ELISA, coated human Trop-2-his 1 µg/ml
Method: as §2

[7] = target: T2, recombinant human Trop-2-his protein …; test: BLI, antibody on AHC sensor, Trop-2-his 23, 30, 45, 60 nM
Method: Affinities of the antibodies were determined by an assay including capturing Fc fragments of the antibodies with anti-human IgG Fc capture (AHC) biosensors using Octet QKe system instrument from Fortebio.
For the assay, each of the antibodies (h23-12, h4-3, and control antibody Sacituzumab) was diluted to 4 μg/ml in PBS, and was allowed to flow through the surface of an AHC biosensor (Cat.: 18-0015, PALL) for 120 s. Recombinant human Trop-2-his protein (ACCESSION NO.: NP_002344.2, AA 1-274) was used as a mobile phase. The Trop-2-his protein was used in following concentrations which corresponded to different antibodies: in case of h23-12, the Trop-2 was used in concentrations of 23, 30, 45, and 75 nM; in case of h4-3, it was used in concentrations of 23, 30, 45, and 60 nM; and in case of Sacituzumab, it was used in concentrations of 23, 30, 45, and 75 nM. The binding time was 100 s and the dissociation time was 300 s. When the assay was finished, data from which the response values of blank control had been deducted were fitted to a 1:1 Langmuir binding model using software, and then kinetic constants for antigen-antibody binding were calculated.

[8] = target: T1, recombinant mouse Trop-2-his protein …; test: ELISA, coated mouse Trop-2-his 1 µg/ml
Method: as §2

B1: PC (antibody, V domains shown)
VH: QVQLQQSGSELKKPGASVKVSCKASGYTFTNYGMNWVKQAPGQGLKWMGWINTYTGEPTYTDDFKGRFAFSLDTSVSTAYLQISSLKADDTAVYFCARGGFGSSYWYFDVWGQGSLVTVSS
VL: DIQLTQSPSSLSASVGDRVSITCKASQDVSIAVAWYQQKPGKAPKLLIYSASYRYTGVPDRFSGSGSGTDFTLTISSLQPEDFAVYYCQQHYITPLTFGAGTKVEIK
notes: not the human IgG1 Sacituzumab m5; also called Positive Control (PC); Sacituzumab, a version having murine IgG constant region; not shown: murine IgG heavy-chain constant region and murine light-chain constant region of this version
- binding result [1]: no binding (tested: 1 µg/ml (paragraph 111 prints '1 g/ml'))

B2: m17-1 (antibody, mouse IgG1, V domains shown)
VH: EVKLVESGGVLVKPGGSLKLSCAASGFTFSDSAMSWVRQTPEKRLEWVASISRGDDTYYPDSVKGRITISRDFARNILYLQMTSLRSEDTAMYYCTRDRFGFAYWGQGTLVTVSA
VL: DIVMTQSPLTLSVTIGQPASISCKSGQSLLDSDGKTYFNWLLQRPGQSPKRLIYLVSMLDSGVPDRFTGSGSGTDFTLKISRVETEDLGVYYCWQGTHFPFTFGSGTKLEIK
notes: also called murine antibody 17-1
- binding result [2]: binds

B3: m11-4 (antibody, mouse IgG1, V domains shown)
VH: QVQLQQPGAELVRPGASVNLSCKASGYTFTSYWINWVKQRPGQGLEWIGNIYPSNSYTNYNQKFKDTATLTVDKSSSTAYMQLSSPTSEDSAVYFCSSYRSDGFAYWGQGTLVTVSA
VL: DILLTQSPAILSVSPGEKVSFSCRASQNIGTSIHWYQQRTNGSPRLLIEFASESISGIPSRFSGSGSGTDFTLTINSVESEDIADYYCQQSNSWPFTFGGGTKLEIK
notes: also called murine antibody 11-4; ml 1-4
- binding result [3]: no binding (tested: 1 µg/ml)

B5: h4-3-1 (antibody, human IgG1, kappa, V domains shown)
VH: EVQLVQSGPEVKKPGASVKVSCKASGFTFTDYVIGWVRQAPGQGLEWIGEIYLGSGTIYYTEKFKGRVTMTADTSTSTAYMELSSLRSEDTAVYYCARGSIFPFDYWGQGTLVTVSS
VL: DIQLTQSPSSLSASVGDRVTITCSASSSVSYMYWYQQKPGKAPKLLIYDTSTLASGVPSRFSGSGSGTDFTLTISSLQPEDFATYYCQQWSSYPYTFGQGTKLEIKR
notes: also called CDR grafted antibody 4-3
- Kd [4]: 0.304 nM
- EC50 [5]: 0.0461 nM
- EC50 [6]: 0.0469 nM
- Kd [7]: 0.545 nM
- koff [7]: 0.000146 s⁻¹
- kon [7]: 267000 M⁻¹ s⁻¹
- binding result [8]: no binding (tested: up to 3 µg/ml)

Next, values leading:

- binding result [3]: no binding (tested: 1 µg/ml)
B4: m3-11 (antibody, mouse IgG1, V domains shown)
VH: QVQLQQPGAELVKPGSSVKLSCKASGYTFTSYWMYWVKQRPGQGLEWIGEINPSNGRTNYNEKFKSKATLTVDKSSSTAYMQFSSLTSEDSAVYYCTREGHNYDGSLGAMDHWGQGTSVTVSS
VL: DVVVTQTPLSLPVSFGDQVSISCRSSQSLTNSYGNTFLSWYLHKPGQSPQLLLYGISNRFSGVPDRFSGSGSGTDFTLKINTIKPEDLGMYYCFQSTHQPYTFGGGTKLEIK
notes: also called murine antibody 3-11

- binding result [3]: no binding (tested: 1 µg/ml)
B6: m4-3 (antibody, mouse IgG1, V domains shown)
VH: QVQLQQSGPELVKPGASVKMSCKASGFTFTDYVIGWVKQRTGQGLEWIGEIYLGSGTIYYTEKFKGKATLTADTSSNTAYMQLSSLTSEDSAVYFCARGSIFPFDYWGQGTTLTVSS
VL: QIVLTQSPAIMSASPGEKVTMTCSASSSVSYMYWYQQKPGSSPRLLIYDTSTLASGVPVRFSGSGSGTSYSLTISRMEAEDAATYYCQQWSSYPYTFGGGTKLEIK
notes: also called murine antibody 4-3
